Assay results from patent US10227575B2, “Multi-domain enzymes having cutinase activity, compositions comprising same and uses thereof” (OZYMES, priority 2015, dated 2019).
Where “and” joins values, the source holds several entries; their conditions need not be identical. Identical values can stand only once. Like-named read-outs stand apart in the source and are kept apart here. Marks after values point to notes of the source that are not given here.

Tests used:
[1] = Enzymatic activity in the presence of organic solvents; type: biochemical; conditions: buffer only = 100%
Method: Enzyme activity in various organic solvents was studied over a concentration range of 1-30% at room temperature. pNP-palmitate was completely dissolved in 2-propanol (8 mM) and then added to 50 mM Tris/HCl buffer pH 8.0 containing up to 30% organic solvent to give a final substrate concentration of 0.8 mM. The reaction was started by addition of enzyme and the formation of pNP was assayed as described above in Example 20.1.

[2] = Enzyme substrate profiles, esterase assays; type: biochemical; conditions: highest activity towards a specific substrate set to 100%
Method: (§1) Esterase activity was determined by monitoring the formation of para-nitrophenol (pNP) at 410 nm from various pNP-esters using a Beckman UV spectrophotometer (model DU 640). Substrates were completely dissolved in 2-propanol (8 mM) and were then added to 50 mM Tris/HCl buffer pH 8.0 to give a final substrate concentration of 0.8 mM. The reaction (1 mL) was started by adding an appropriate amount of enzyme. One enzyme unit (U) was defined as the amount of enzyme that produced 1 μmol of product (pNP) per min; specific activity was expressed as U/mg protein. A molar extinction coefficient of 15 mM^−1 cm^−1 was used for the calculation.

[3] = type: biochemical, Petromyces albertensis; conditions: for Residual ochratoxin A (%): 5 ppm Ochratoxin A, 37° C., relative to incubation without enzyme
Method: The enzymes purified in Example 18 were tested for their ability to degrade the mycotoxin Ochratoxin A. In general, the mycotoxin was incubated with different concentrations of the enzyme, and the remaining mycotoxin concentration, as well the respective degradation products, were monitored by LC-MS over time (where possible/applicable).
Reactions were performed in 1 mL volumes in glass HPLC vials comprising the mycotoxin to be analyzed and the enzyme to be tested. For Ochratoxin A (Petromyces albertensis, 01877 Sigma), 50 μL of a 100 ppm stock solution in methanol (final concentration of 5 ppm) was added to 910 μL of distilled water and 40 μL of the enzyme to be tested. In control reactions, the volume of enzyme was substituted with distilled water. The reactions were incubated in an Eppendorf thermomixer at 37° C. with shaking at 750 rpm. 100 μL samples were withdrawn at 1, 4 and 24 h for chromatographic analysis.
Mycotoxin analysis was carried out using a Shimadzu LCMS-2020 equipped with a UV/vis detector. Chromatographic separation of 10 μL injected sample was carried out at 30° C. on a Kinetex 2.6 μm XB-C18 column 100 Å (50×2.1 mm) using a binary gradient. For Ochratoxin A, eluent A consisted of water and eluent B consisted of acetonitrile and the UV detection wavelength was 360 nm.
The five enzymes tested were screened for their ability to degrade 5 ppm (5,000 ppb) Ochratoxin A at 37° C.

[4] = Activity of crude culture supernatants from bioreactor; type: biochemical; conditions: pNP-dodecanoate
[5] = Temperature optimum; type: biochemical; conditions: for Relative activity at temperature: highest activity set to 100%
Method: For estimation of the temperature optimum, buffer containing pNP-palmitate (see esterase assay in Example 20.1) was pre-incubated to reach the desired temperature, enzyme was then added, and the formation of pNP was assayed. For this experiment, Tris/HCl buffer was replaced with sodium phosphate buffer (50 mM, pH 8.0) to avoid a pH shift at the different temperatures.

[6] = pH dependence of enzymes; type: biochemical; conditions: for Relative activity (%): highest activity = 100%
Method: The influence of different pH values (from 5.5 to 11) on the activities of the purified enzymes was examined in three buffer systems (sodium acetate, sodium phosphate, and Tris-HCl) at room temperature using pNP-palmitate (see esterase assay in Example 20.1) as a substrate at a final substrate concentration of 0.8 mM.

[7] = Specific activity of purified enzymes (standard esterase assay); type: biochemical
Method: In summary, using different techniques for enzyme purification, pure enzyme preparations were obtained and tested for their activity towards a standard esterase substrate, pNP-palmitate. Enzymatic activities of the purified variants are summarized below:
as §1

[8] = Stability in the presence of hydrogen peroxide; type: physicochemical
Method: as §1
Purified cutinases were incubated at room temperature in the presence of 0, 30, 100, 300, 1500, and 3000 ppm of hydrogen peroxide. Residual enzyme activity was assayed (see Example 20.1) after 1, 2, 3, and 7 days of incubation.

B1: CfCUT: mature wild-type cutinase from Cellulomonas flavigena, SEQ ID NO: 28 (protein, listed as Cellulomonas flavigena)
chain: APACPDVELVFARGTGEAAGLGIVGRPLERALAAELPGRTVVATAVDYAASSSQASAGPGSGDMVAKVRSRAAACPGTQFVLGGYSQGATVTDLALGIRTGVTAGTALPEDLAARVAAVVVYGNPLGLTRRTIAQAAPAFATRTVEYCNAGDPVCEPGGGRFTAHITYATNGTVLEGARFAAARVTAPAPTPTPGPTGTPAPVPSAEPTPAPGDTCVTASSLQHVRDGRAYPLWMRTYARGSGDPLGVLSSRTVVSLQADGTDTWRKVAAC
- Relative enzymatic activity (%) ([1]; 2-Propanol 5% (v/v)): 70 ± 3%
- Relative enzymatic activity (%) ([1]; 2-Propanol 10% (v/v)): 17 ± 8%
- Relative enzymatic activity (%) ([1]; Acetone 1% (v/v)): 92 ± 9%
- Relative enzymatic activity (%) ([1]; Acetone 5% (v/v)): 95 ± 1%
- Relative enzymatic activity (%) ([1]; Acetone 10% (v/v)): 52 ± 5%
- Relative enzymatic activity (%) ([1]; Dimethyl sulfoxide (DMSO) 10% (v/v)): 105 ± 11%
- Relative enzymatic activity (%) ([1]; Dimethyl sulfoxide (DMSO) 20% (v/v)): 107 ± 1%
- Relative enzymatic activity (%) ([1]; Dimethyl sulfoxide (DMSO) 30% (v/v)): 57 ± 15%
- Relative enzymatic activity (%) ([1]; Dimethylformamide (DMF) 5% (v/v)): 101 ± 17%
- Relative enzymatic activity (%) ([1]; Methanol 10% (v/v)): 115 ± 11%
- Relative enzymatic activity (%) ([1]; Methanol 20% (v/v)): 62 ± 3%
- Relative activity, pNP-acetate (C2) [2]: 6%
- Relative activity, pNP-butyrate (C4) [2]: 93 ± 8%
- Relative activity, pNP-caprylate (C8) [2]: 11 ± 2%
- Relative activity, pNP-decanoate (C10) [2]: 40 ± 5%
- Relative activity, pNP-myristate (C14) [2]: 47 ± 8%
- Relative activity, pNP-palmitate (C16) [2]: 100* %
- Residual ochratoxin A (%) ([3]; 1 h): 11%
- Residual ochratoxin A (%) ([3]; 4 h): 2%
- Residual ochratoxin A (%) ([3]; 24 h): 0%
- Ochratoxin A Degradation per U and h ([3]; per 1 U of enzyme (pNP standard test) and hour at 37° C.): 3 µmol
- activity of crude culture supernatant [4]: 0.5 U/mL
- Temp. opt. (° C.) [5]: 25 °C
- Relative activity at temperature ([5]; 20 ° C.): 69 ± 2%
- Relative activity at temperature ([5]; 25 ° C.): 100* %
- Relative activity at temperature ([5]; 30 ° C.): 63 ± 7%
- Relative activity at temperature ([5]; 35 ° C.): 45 ± 5%
- Relative activity at temperature ([5]; 40 ° C.): 38 ± 8%
- Relative activity at temperature ([5]; 45 ° C.): 1%
- pH opt. [6]: 9.5
- Relative activity (%) ([6]; pH 6.5, sodium phosphate buffer): 13 ± 2%
- Relative activity (%) ([6]; pH 7.0, sodium phosphate buffer): 40 ± 4%
- Relative activity (%) ([6]; pH 7.5, sodium phosphate buffer): 65 ± 5%
- Relative activity (%) ([6]; pH 8.0, Tris/HCl): 62 ± 2%
- Relative activity (%) ([6]; pH 8.5, Tris/HCl): 85 ± 6%
- Relative activity (%) ([6]; pH 9.0, Tris/HCl): 93 ± 9%
- Relative activity (%) ([6]; pH 9.5, Tris/HCl): 100* %
- Relative activity (%) ([6]; pH 10, Tris/HCl): 31 ± 1%
- Enzymatic activity of the purified variant ([7]; pNP-palmitate): 26 ± 1 U/mg
- Spec. Act. (U/mg) ([7]; towards pNP-palmitate (standard assay)): 26 ± 1 U/mg
- Relative activity (%) after exposure to hydrogen peroxide ([8]; H2O2 30 ppm, Day 0): 101 ± 22%
- Relative activity (%) after exposure to hydrogen peroxide ([8]; H2O2 30 ppm, Day 1): 89 ± 8%
- Relative activity (%) after exposure to hydrogen peroxide ([8]; H2O2 30 ppm, Day 2): 82 ± 8%
- Relative activity (%) after exposure to hydrogen peroxide ([8]; H2O2 30 ppm, Day 3): 76 ± 6%
- Relative activity (%) after exposure to hydrogen peroxide ([8]; H2O2 30 ppm, Day 7): 72 ± 7%
- Relative activity (%) after exposure to hydrogen peroxide ([8]; H2O2 100 ppm, Day 0): 92 ± 5%
- Relative activity (%) after exposure to hydrogen peroxide ([8]; H2O2 100 ppm, Day 1): 114 ± 15%
- Relative activity (%) after exposure to hydrogen peroxide ([8]; H2O2 100 ppm, Day 2): 118 ± 15%
- Relative activity (%) after exposure to hydrogen peroxide ([8]; H2O2 100 ppm, Day 3): 92 ± 11%
- Relative activity (%) after exposure to hydrogen peroxide ([8]; H2O2 100 ppm, Day 7): 94 ± 7%
- Relative activity (%) after exposure to hydrogen peroxide ([8]; H2O2 300 ppm, Day 0): 93 ± 12%
- Relative activity (%) after exposure to hydrogen peroxide ([8]; H2O2 300 ppm, Day 1): 106 ± 20%
- Relative activity (%) after exposure to hydrogen peroxide ([8]; H2O2 300 ppm, Day 2): 118 ± 12%
- Relative activity (%) after exposure to hydrogen peroxide ([8]; H2O2 300 ppm, Day 3): 102 ± 14%
- Relative activity (%) after exposure to hydrogen peroxide ([8]; H2O2 300 ppm, Day 7): 106 ± 13%
- Relative activity (%) after exposure to hydrogen peroxide ([8]; H2O2 1,500 ppm, Day 0): 126 ± 1%
- Relative activity (%) after exposure to hydrogen peroxide ([8]; H2O2 1,500 ppm, Day 1): 106 ± 12%
- Relative activity (%) after exposure to hydrogen peroxide ([8]; H2O2 1,500 ppm, Day 2): 109 ± 2%
- Relative activity (%) after exposure to hydrogen peroxide ([8]; H2O2 1,500 ppm, Day 3): 95 ± 4%
- Relative activity (%) after exposure to hydrogen peroxide ([8]; H2O2 1,500 ppm, Day 7): 54 ± 16%
- Relative activity (%) after exposure to hydrogen peroxide ([8]; H2O2 3,000 ppm, Day 0): 128% and 128 ± 18%
- Relative activity (%) after exposure to hydrogen peroxide ([8]; H2O2 3,000 ppm, Day 1): 115 ± 2%
- Relative activity (%) after exposure to hydrogen peroxide ([8]; H2O2 3,000 ppm, Day 2): 99 ± 23%
- Relative activity (%) after exposure to hydrogen peroxide ([8]; H2O2 3,000 ppm, Day 3): 60 ± 6%
- Relative activity (%) after exposure to hydrogen peroxide ([8]; H2O2 3,000 ppm, Day 7): 35% and 35 ± 1%
